Measurements: patent US20230064978A1, “CYCLIC PEPTIDE RECEPTOR LANTHIONINE SYNTHETASE C-LIKE PROTEIN (LANCL) AND USES THEREOF” (LATERAL IP PTY LTD, priority 2019, published 2023)
Entries after “also recorded” stand apart in the source; their conditions may differ. Bridges are numbered along the chain shown (N, C = ends). Where no end group is shown, it is not given here.

Assays:
human recombinant LANCL1 = target: T1, human recombinant LANCL1 (Homo sapiens, UniProt O43813); assay: In-gel fluorescence: photolabelling of recombinant LANCL1 with PAL probes, with or without excess competitor; format: binding
T1 construct: purchased ABCAM ab181923; host or cells: E. coli
T1 sequence (O43813 with tags, fused parts or gaps): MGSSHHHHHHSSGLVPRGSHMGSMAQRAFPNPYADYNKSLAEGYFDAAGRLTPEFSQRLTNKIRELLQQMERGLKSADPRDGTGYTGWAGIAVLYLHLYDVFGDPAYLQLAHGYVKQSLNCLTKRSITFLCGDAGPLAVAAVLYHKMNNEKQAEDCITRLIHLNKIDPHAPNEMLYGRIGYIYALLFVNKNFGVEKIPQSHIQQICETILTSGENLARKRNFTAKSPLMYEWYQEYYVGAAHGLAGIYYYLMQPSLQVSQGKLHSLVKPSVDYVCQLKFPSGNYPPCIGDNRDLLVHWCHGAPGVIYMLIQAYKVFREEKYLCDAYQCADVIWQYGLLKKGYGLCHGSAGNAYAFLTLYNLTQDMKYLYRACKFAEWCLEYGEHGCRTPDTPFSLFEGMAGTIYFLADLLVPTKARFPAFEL
Protocol: The in-gel fluorescence protocol can be briefly described as follows:
1. LANCL1 Labelling, Assay on 96 Well Plate, Volume of the Reaction 40 μl in PBS
3 μg/well of human recombinant LANCL1 (ABCAM catalog no. ab181923, 1 mg/ml; expressed in E. Coli and incorporating an N-terminal 23 amino acid hexaHis tag; UniProtKB/Swiss-Prot Accession no: O43813);
• Vehicle DMSO • ±LAT8881 (a cyclic peptide fragment of human growth hormone; SEQ ID NO:1) • SEQ ID NO:1) as competitor @ 25, 50, 100 or 200 μM, pre-incubation 10 min, 4 μl of a stock solution 10-fold concentrated • ±LAT9991-PAL, LAT7771-PAL or LAT9993-PAL probes @ 1 μM, incubation 30 min at room temperature on a plate agitator (protected from light), 4 μl of a stock solution @10 μM
• Irradiation @ 365 nm 20 min (4° C., on a support containing ice) Transfer 40 μl in a clean Eppendorf tube
• Reduction: DTT 10 mM, 30 min @ 56° C. • Alkylation: Iodoacetamide 30 mM, 45 min @ RT Click-iT AzideTamra of 60 μL samples
(§1) • Acetone Precipitation −20° C. ON • Dry pellet resuspended in 30 μL 1% SDS in 50 mM Tris-HCl pH 7.5 • Photolabeled LANCL1 was tagged with tetramethylrhodamine (TAMRA) azide @100 μM TAMRA azide by copper click chemistry using the Click-iT Protein Reaction Buffer Kit (ThermoFisher Scientific) during 30 minutes • Precipitation using the chloroform-methanol method, pellet was air-dried for 10 min at room temperature, resuspended in 30 μL SDS loading buffer (Bio Rad's XT Sample Buffer containing 2.5% v/v 2-mercaptoethanol) and heated (60° C., 30 min)
(§2) • SDS-PAGE (4-15% Criterion™ TGX Stain-Free™ Protein Gel, Bio Rad) • Analyzed by in-gel fluorescence scanning using a ChemiDoc™ MP Imaging System (Bio Rad) with a green LED light as an excitation source and a BP600/20 nm emission filter

DRG neurons = assay: Confocal microscopy of PAL probe binding in DRG cell cultures, spinal nerve ligation model; format: cell-based, Sprague Dawley rats; conditions: specificity control; excess unlabeled competitor
From the text: LAT9991-PAL was used in conjunction with confocal microscopy to visualise the location of potential target(s), noting that analgesic agents can have activity at several sites, either on central or peripheral neurons, or on glial or inflammatory cells that are in proximity to neurons. To identify the cell types to which LAT9991-PAL binds, 3-day cell cultures of DRG from neuropathic or control sites were taken from animals with neuropathy due to spinal nerve ligation. Briefly, L5 and L6 spinal nerves of male Sprague Dawley rats were ligated to create a robust and long-lasting mechanical allodynia of the injured hind paw. Presence of neuropathic pain was confirmed 2 weeks post-spinal nerve ligation surgeries (day 14) using von Frey (VF) filaments (up-and-down method) applied on ipsilateral (injured) and contralateral (non-injured) paw). Live DRG cells were dissected out as described previously and incubated with LAT9991-PAL for 1 hour prior to UV irradiation to fix the binding in situ. […] As a specificity control, the binding of LAT9991-PAL to the neuropathic DRG was blocked in the presence of an excess amount of unlabeled LAT9991 peptide.

human recombinant LANCL2 = target: T2, human recombinant LANCL2 (Homo sapiens, UniProt Q9NS86); assay: In-gel fluorescence: photolabelling of recombinant LANCL2 with PAL probe, with or without excess LAT8881; format: binding; conditions: in-gel fluorescence after UV cross-linking
T2 construct: human recombinant LANCL2 (amino acid residues 1-450); GST (N); purchased ABCAM ab163277; host or cells: wheat germ
T2 sequence (Q9NS86 1-450): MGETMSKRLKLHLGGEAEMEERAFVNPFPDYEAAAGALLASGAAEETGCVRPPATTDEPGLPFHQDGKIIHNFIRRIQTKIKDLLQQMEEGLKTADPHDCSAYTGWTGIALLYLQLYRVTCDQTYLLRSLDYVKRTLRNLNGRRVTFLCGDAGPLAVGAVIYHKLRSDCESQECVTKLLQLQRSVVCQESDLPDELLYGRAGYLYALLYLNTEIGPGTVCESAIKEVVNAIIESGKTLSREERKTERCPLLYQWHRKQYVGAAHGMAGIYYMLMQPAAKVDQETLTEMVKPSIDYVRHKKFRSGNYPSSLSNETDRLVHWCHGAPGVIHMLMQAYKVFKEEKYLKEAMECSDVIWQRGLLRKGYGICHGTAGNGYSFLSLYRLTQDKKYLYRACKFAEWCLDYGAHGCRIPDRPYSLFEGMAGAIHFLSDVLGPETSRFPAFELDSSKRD
Protocol: (§3) An in-gel fluorescence protocol was followed to determine whether the cyclic peptides bound to LANCL2 and LANCL3. Briefly:
(§4) 1. LANCL2 and LANCL3 Labelling, Assay on 96 Well Plate, Volume of the Reaction 40 μl in PBS
• 1 μg/well of human recombinant LANCL2 (amino acid residues 1-450; ABCAM catalog no. ab163277, ˜0.07 mg/ml; expressed in wheat germ and incorporating an N-terminal GST tag; UniProt Accession no: Q9NS86);
• Vehicle DMSO • ±LAT8881 (a cyclic peptide fragment of human growth hormone; SEQ ID NO:1) • SEQ ID NO:1 as competitor @ 50, 100 or 200 μM, pre-incubation 10 min, 4 μl of a stock solution 10-fold concentrated • ±LAT9991-PAL probes @ 1 μM, incubation 30 min at room temperature on a plate agitator (protected from light), 4 μl of a stock solution @10 μM
(§5) • Irradiation @ 365 nm 20 min (4° C., on a support containing ice) • Transfer 40 μl in a clean Eppendorf tube
(§6) • Reduction: DTT 10 mM, 30 min @ 56° C. • Alkylation: Iodoacétamide 30 mM, 45 min @ RT Click-iT AzideTamra of 60 μL samples
as §1, with “for” for “during”, “Rad” for “Rad's”
as §2

[1] = test system: tissue homogenates of nerve from neuropathic animals; assay: PAL cross-linking to nerve tissue homogenates and gel separation; format: binding
From the text: Using a ligand driven approach, the present inventors utilized the photo-activatable cross-linking PAL from Evotec A.G. (Photo-Activated Labelling) technology that derivatizes the active cyclic peptides to allow UV-induced cross-linking to binding targets (described herein as peptide/SEQ ID NO:X-PAL). This allows subsequent detection in cells, gels of tissue isolates or in pull-down of the peptide/target complex for sequencing by mass spectroscopy (PALMS).
LAT9991-PAL was cross-linked to tissue homogenates of nerve from neuropathic animals.

LANCL1 = LANCL1 (Rattus norvegicus, UniProt Q9QX69); assay: Mass spectrometry of excised gel bands from PAL cross-linked homogenates (PALMS); format: binding; set-up: from tissue; host or cells: nerve tissue homogenate of neuropathic animals; conditions: vs un-crosslinked samples (CU) and samples with excess LAT8881 (COMP); 37 kDa band
Chain of LANCL1 (Q9QX69 whole entry): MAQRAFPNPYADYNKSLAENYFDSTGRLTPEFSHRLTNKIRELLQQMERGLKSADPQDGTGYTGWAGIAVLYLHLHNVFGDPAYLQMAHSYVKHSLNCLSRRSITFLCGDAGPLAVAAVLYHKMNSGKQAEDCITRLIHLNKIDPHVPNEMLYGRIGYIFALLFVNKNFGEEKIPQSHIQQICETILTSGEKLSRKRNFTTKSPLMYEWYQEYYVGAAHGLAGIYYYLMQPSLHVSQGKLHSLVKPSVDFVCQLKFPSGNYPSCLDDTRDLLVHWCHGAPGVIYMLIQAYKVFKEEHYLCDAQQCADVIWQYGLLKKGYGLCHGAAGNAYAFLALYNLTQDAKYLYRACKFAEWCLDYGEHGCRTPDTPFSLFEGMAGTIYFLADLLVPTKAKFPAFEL
From the text: Having identified at least three molecular weight bands as representative of the potential targets, the 12-15 kD, 37 kD and 50 kD regions of the gel were excised, subjected to limited proteolysis and analysed by mass spectrometry to identify peptides from proteins that were differentially enriched. The detection of at least two different peptides from a protein that is enriched in the LAT9991-PAL cross-linked samples when compared to (i) the un-crosslinked samples and (ii) LAT9991-PAL in the presence of excess LAT8881 (SEQ ID NO:1; YLRIVQCRSVEGSCGF) was considered a positive signature. LAT9991-PAL, LAT9993-PAL and LAT7771-PAL were also used. LAT9993 (SEQ ID NO:41) has the amino acid sequence SCRSRPVESSC.

human recombinant LANCL3 = target: T3, human recombinant LANCL3 (Homo sapiens, UniProt Q6ZV70); assay: In-gel fluorescence: photolabelling of recombinant LANCL3 with PAL probe, with or without excess LAT8881; format: binding; conditions: in-gel fluorescence after UV cross-linking
T3 construct: human recombinant LANCL3 (amino acid residues 1-420); 10xHis (N); Myc (C); purchased ABCAM ab163277; host or cells: E. coli
T3 sequence (Q6ZV70 whole entry, the tested form may be a part): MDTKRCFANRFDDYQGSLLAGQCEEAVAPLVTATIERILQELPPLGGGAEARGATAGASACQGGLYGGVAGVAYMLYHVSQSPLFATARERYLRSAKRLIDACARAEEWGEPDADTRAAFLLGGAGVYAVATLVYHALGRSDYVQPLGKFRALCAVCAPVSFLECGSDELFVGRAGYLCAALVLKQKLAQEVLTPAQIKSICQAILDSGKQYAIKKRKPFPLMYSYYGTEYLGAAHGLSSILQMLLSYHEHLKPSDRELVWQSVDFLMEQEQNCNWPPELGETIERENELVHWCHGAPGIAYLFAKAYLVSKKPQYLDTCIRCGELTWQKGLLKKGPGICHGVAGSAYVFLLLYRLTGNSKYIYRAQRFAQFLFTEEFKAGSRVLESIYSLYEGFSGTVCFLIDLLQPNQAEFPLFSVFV
Protocol: as §3, §4
• […] of human recombinant LANCL3 (amino acid residues 1-420; ABCAM catalog no. ab163277, ˜0.07 mg/ml; expressed in E. Coli and incorporating an N-terminal 10×His tag and a C-terminal Mvc tag; UniProt Accession no: Q6ZV70);
• Vehicle DMSO • ±LAT8881 (a cyclic peptide fragment of human growth hormone; SEQ ID NO:1) • SEQ ID NO:1 as competitor @ 50, 100 or 200 μM, pre-incubation 10 min, […], incubation 30 min at room temperature on a plate agitator (protected from light), 4 μl of a stock solution @10 μM
as §5, §6
as §1, with “for” for “during”, “Rad” for “Rad's”
as §2

Inhibition of LAT9991-PAL binding to recombinant LANCL1 by excess competitor (human recombinant LANCL1; probe LAT9991-PAL, excess unlabelled competitor) | Binding of PAL probe to recombinant LANCL2 (human recombinant LANCL2) | Binding of PAL probe to recombinant LANCL1 (human recombinant LANCL1; in-gel fluorescence after UV (365 nm) cross-linking) | Binding of PAL probe to recombinant LANCL3 (human recombinant LANCL3) | Substance | Block of LAT9991-PAL binding to neuropathic DRG by excess unlabeled peptide (DRG neurons) | Cross-linking of PAL probe to tissue homogenates of nerve from neuropathic animals [1] | Molecular weight ranges of targets stained after gel separation ([1]; PAL probe cross-linked to nerve homogenates) | LANCL1 bound / enriched in PAL probe cross-linked samples (mass spectrometry) (LANCL1)
inhibited | – | – | – | CRSVEGSCG (disulfide 1-8 (inferred)) [LAT9991] | blocked | – | – | –
– | bound to recombinant LANCL2 | bound to recombinant LANCL1 | – | LAT7771-PAL: cyclic peptide conjugate of LAT7771 (SEQ ID NO:52) with the PAL photo-activatable cross-linking group (CRIIHNNNC; disulfide 1-9 (inferred); also: ['PAL photo-activatable cross-linking group, structure and site not given here']) | – | shown to cross-link | ˜12-15 kD, ˜37 kD and ˜50 kD | enriched by several fold-changes; also recorded: bound to LANCL1
– | – | – | bound to recombinant LANCL3 | LAT9993-PAL: cyclic peptide conjugate of LAT9993 (SEQ ID NO:41) with the PAL photo-activatable cross-linking group (SCRSRPVESSC; disulfide 2-11 (inferred); also: ['PAL photo-activatable cross-linking group, structure and site not given here']) | – | shown to cross-link | – | enriched by several fold-changes; also recorded: bound to LANCL1
